The assay deals with T1, human angiotensin converting enzyme 2 (ACE2) receptor on HSC-2 oral squamous cell carcinoma cells (human, UniProt Q9BYF1 18-805).
T1 construct: whole, on cells
As to the kind of experiment: live cell confocal microscopy of HSC-2 cells with Alexa 595 labeled MASL (legend prints 1.4 pM) and Alexa 647 labeled ACE2 monoclonal antibody. This is colocalisation, not a direct binding assay.

B1: Maackia amurensis seed lectin (MASL) (other)
chain: SDELSFTINNFVPNEADLLFQGEASVSSTGVLQLTRVENGQPQQYSVGRALYAAPVRIWDNTTGSVASFSTSFTFVVKAPNPTITSDGLAFFLAPPDSQIPSGRVSKYLGLFNNSNSDSSNQIVAVEFDTYFGHSYDPWDPNYRHIGIDVNGIESIKTVQWDWINGGVAFATITYLAPNKTLIASLVYPSNQTSFIVAASVDLKEILPEWVRVGFSAATGYPTQVETHDVLSWSFTSTLEANCDAATEN
notes: also called Maacki amurensis seed lectin
Take B1: the binding result is listed as “binds”.

The values are drawn from patent publication US20230391837A1 (ROWAN UNIVERSITY, published 2023).
